Measurements taken from the supplement of paper PMC7877785.
± gives the uncertainty stated by the source.

Assay: self-splicing fitness, log relative to wild type (ln ratio); higher = more splicing; Tetrahymena group I intron in knt gene, E. coli kanamycin selection, DiMSum; sequences stand for … in CUCUCU…GGAGGGAAAAGUUAUCAGGCAUGCACCUGGUAGCUAGUCUUUAAACCAAUAGAUUGCAUCGGUUUAAAAGGCAAGACCGUCAAAUUGCGGGAAAGGGGUCAACAGCCGUUCAGUACCAAGUCUCAGGGGAAACUUUGAGAUGGCCUUGCAAAGGGUAUGGUAAUAAGCUGACGGACAUGGUCCUAACCACGCAGCCAAGUCCUAAGUCAACAGAUCUUCUGUUGAUAUGGAUGCAGUUCACAGACUAAAUGUCGGUCGGGGAAGAUGUAUUCUUCUCAUAAGAUAUAGUCGGACCUCUCCUUAAUGGGAGCUAGCGGAUGAAGUGAUGCAACACUGGAGCCGCUGGGAACUAAUUUGUAUGCGAAAGUAUAUUGAUUAGUUUUGGAGUACUCGUGGUCG
Method in brief: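 Pooled colonies went to amplicon sequencing on an Illumina HiSeq 2500 after six replicate transformations. The plates were LB agar with 100 μg/mL carbenicillin, 50 μM IPTG and 0.2% rhamnose, with or without 25 μg/mL kanamycin, incubated overnight at 37°C or 30°C. The E. coli BL21(DE3) library had all eight P1ex-region intron nucleotides randomised, the intron placed in the knt kanamycin-resistance gene on pET-22b(+). DiMSum fitness is the error-weighted combination of replicate fold changes, kanamycin against none, normalised to wild type.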

| Sequence | self-splicing fitness (ln) (30 °C) | self-splicing fitness (ln) (37 °C) |
| --- | --- | --- |
| CGAUAGCAAUAUUACGCUCU | -0.961 ± 0.12 | 0.447 ± 0.12 |
| CGAUAGCAAUAUUACGCUGU | -3.12 ± 0.4 | -2.15 ± 0.31 |
| CGAUAGCAAUAUUACGCUUG | -2.88 ± 0.2 | -1.04 ± 0.16 |
| CGAUAGCAAUAUUACGGGCU | – | 0.128 ± 0.17 |
| CGAUAGCAAUAUUACGGGUG | -0.832 ± 0.069 | -0.736 ± 0.074 |
| CGAUAGCAAUAUUACGGUUU | -3.43 ± 0.15 | -0.7 ± 0.1 |
| CGAUAGCAAUAUUACGUGAA | -4.38 ± 0.22 | -2.16 ± 0.16 |
| CGAUAGCAAUAUUACGUGCC | -1.8 ± 0.15 | 0.00354 ± 0.14 |
| CGAUAGCAAUAUUACGUGGC | -2.8 ± 0.21 | -3.36 ± 0.46 |
| CGAUAGCAAUAUUACGUGUA | -2.23 ± 0.12 | -2.15 ± 0.2 |
| CGAUAGCAAUAUUACGUUCA | -0.0649 ± 0.082 | 0.251 ± 0.1 |
| CGAUAGCAAUAUUACGUUCC | -1.5 ± 0.25 | -1.51 ± 0.32 |
| CGAUAGCAAUAUUACGUUUG | -2.29 ± 0.081 | -0.812 ± 0.081 |
| CGCAAGCAAUAUUACGACCA | -0.724 ± 0.1 | -0.453 ± 0.12 |
| CGCAAGCAAUAUUACGACCG | -1.4 ± 0.11 | -0.441 ± 0.14 |
| CGCAAGCAAUAUUACGACGC | -3.59 ± 0.2 | -2.03 ± 0.16 |
| CGCAAGCAAUAUUACGACGU | -1.73 ± 0.068 | -0.28 ± 0.069 |
| CGCAAGCAAUAUUACGAGGU | -4.03 ± 0.23 | -1.82 ± 0.16 |
| CGCAAGCAAUAUUACGAUGC | – | -2.4 ± 0.32 |

| Sequence | self-splicing fitness (ln) (30 °C) | self-splicing fitness (ln) (37 °C) |
| --- | --- | --- |
| CGCAAGCAAUAUUACGCACG | -2.96 ± 0.23 | -1.24 ± 0.17 |
| CGCAAGCAAUAUUACGCACU | -0.441 ± 0.092 | -0.325 ± 0.11 |
| CGCAAGCAAUAUUACGCCAG | -1.01 ± 0.094 | -0.582 ± 0.13 |
| CGCAAGCAAUAUUACGCCAU | -3.9 ± 0.26 | -2.61 ± 0.19 |
| CGCAAGCAAUAUUACGCCCC | -1.49 ± 0.36 | -0.475 ± 0.38 |
| CGCAAGCAAUAUUACGCCUC | -3.64 ± 0.22 | -1.78 ± 0.15 |
| CGCAAGCAAUAUUACGCGCU | -3.78 ± 0.16 | -1.41 ± 0.12 |
| CGCAAGCAAUAUUACGCGGU | -2.75 ± 0.11 | -2.44 ± 0.17 |
| CGCAAGCAAUAUUACGCUAU | -3.23 ± 0.17 | -3.15 ± 0.22 |
| CGCAAGCAAUAUUACGCUGG | -3.06 ± 0.31 | -2.09 ± 0.25 |
| CGCAAGCAAUAUUACGGAGC | -2.49 ± 0.17 | -2.24 ± 0.24 |
| CGCAAGCAAUAUUACGGCCA | -1.14 ± 0.13 | -0.716 ± 0.12 |
| CGCAAGCAAUAUUACGGUAU | -4.65 ± 0.19 | -2.42 ± 0.13 |
| CGCAAGCAAUAUUACGGUGU | -3.42 ± 0.16 | -3.25 ± 0.23 |
| CGCAAGCAAUAUUACGUACC | -3.02 ± 0.17 | -1.8 ± 0.17 |
| CGCAAGCAAUAUUACGUCAG | -0.378 ± 0.053 | 0.1 ± 0.069 |
| CGCAAGCAAUAUUACGUCCA | -1.46 ± 0.089 | -0.939 ± 0.1 |
| CGCAAGCAAUAUUACGUGCU | -0.881 ± 0.069 | -0.489 ± 0.081 |
| CGCAAGCAAUAUUACGUUCU | -1.53 ± 0.076 | -1.33 ± 0.087 |
